# Measured values published in patent US20100260765A1 (AstraZeneca / MedImmune, published 2010).
# What was measured:
# Assay in all cases: cell-based or functional assay
# KDR [1] = target: T1, KDR (human, UniProt P35968 20-1356)
# KDR [2] = target: T1, KDR; remark: listed apart in the source
# KDR [3] = target: T1, KDR; remark: listed apart in the source
# KDR [4] = target: T1, KDR; remark: listed apart in the source
# KDR [5] = target: T1, KDR; remark: listed apart in the source
# T1 sequence (P35968 20-1356): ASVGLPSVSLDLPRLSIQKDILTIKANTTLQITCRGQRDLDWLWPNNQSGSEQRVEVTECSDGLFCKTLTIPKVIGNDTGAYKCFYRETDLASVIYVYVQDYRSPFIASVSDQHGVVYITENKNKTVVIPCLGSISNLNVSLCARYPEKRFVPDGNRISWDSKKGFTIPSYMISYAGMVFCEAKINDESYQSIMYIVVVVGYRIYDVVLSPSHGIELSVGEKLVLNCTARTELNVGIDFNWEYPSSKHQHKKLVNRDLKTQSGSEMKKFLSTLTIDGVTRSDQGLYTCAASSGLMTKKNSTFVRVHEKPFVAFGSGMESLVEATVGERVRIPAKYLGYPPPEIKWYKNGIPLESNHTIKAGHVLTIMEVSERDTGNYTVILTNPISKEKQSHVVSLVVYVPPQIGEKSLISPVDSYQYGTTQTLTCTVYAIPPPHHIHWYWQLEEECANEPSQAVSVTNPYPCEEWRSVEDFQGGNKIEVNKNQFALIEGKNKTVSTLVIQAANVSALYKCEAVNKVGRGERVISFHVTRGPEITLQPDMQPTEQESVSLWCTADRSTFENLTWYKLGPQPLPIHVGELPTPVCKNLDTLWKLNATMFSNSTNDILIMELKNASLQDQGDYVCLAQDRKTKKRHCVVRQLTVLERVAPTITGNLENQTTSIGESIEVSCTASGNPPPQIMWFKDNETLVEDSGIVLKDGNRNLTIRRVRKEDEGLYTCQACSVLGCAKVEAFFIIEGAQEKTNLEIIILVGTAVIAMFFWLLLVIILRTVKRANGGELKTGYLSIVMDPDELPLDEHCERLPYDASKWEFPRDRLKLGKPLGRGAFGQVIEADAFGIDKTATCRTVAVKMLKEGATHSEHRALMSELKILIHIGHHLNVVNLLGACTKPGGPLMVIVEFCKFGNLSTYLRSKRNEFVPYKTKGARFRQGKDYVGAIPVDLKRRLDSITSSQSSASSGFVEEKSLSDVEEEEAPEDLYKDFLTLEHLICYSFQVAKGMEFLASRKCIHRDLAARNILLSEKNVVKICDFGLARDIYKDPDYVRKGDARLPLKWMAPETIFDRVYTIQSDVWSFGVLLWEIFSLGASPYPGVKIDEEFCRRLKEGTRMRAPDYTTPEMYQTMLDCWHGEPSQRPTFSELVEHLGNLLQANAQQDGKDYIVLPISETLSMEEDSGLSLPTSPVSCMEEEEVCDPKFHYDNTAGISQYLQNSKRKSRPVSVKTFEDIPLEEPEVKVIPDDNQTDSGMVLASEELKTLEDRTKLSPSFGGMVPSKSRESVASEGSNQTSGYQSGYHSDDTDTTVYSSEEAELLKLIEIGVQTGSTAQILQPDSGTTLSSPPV
Binder,"Activity at 133 nM (% Inhibition), 24-hour Pre-incubation at 37° C., Average (KDR [1]) [%]","Activity at 133 nM (% Inhibition), 24-hour Pre-incubation at 37° C., N = 1 (KDR [1]) [%]","Activity at 133 nM (% Inhibition), 24-hour Pre-incubation at 37° C., N = 2 (KDR [1]) [%]","Activity at 133 nM (% Inhibition), 1-hour Pre-incubation at 4° C., Average (KDR [2]) [%]","Activity at 133 nM (% Inhibition), 1-hour Pre-incubation at 4° C., N = 1 (KDR [2]) [%]","Activity at 133 nM (% Inhibition), 1-hour Pre-incubation at 4° C., N = 2 (KDR [2]) [%]","% of Max VEGF KDR pTyr Activity (at 133 nM antibody concentration), Average (KDR [4]) [%]","% of Max VEGF KDR pTyr Activity (at 133 nM antibody concentration), N = 1 (KDR [4]) [%]","% of Max VEGF KDR pTyr Activity (at 133 nM antibody concentration), N = 2 (KDR [4]) [%]","% Inhibition of VEGF165-mediated 6-keto Prostaglandin F1α release at 133 nM Antibody Concentration, Average (KDR [5]) [%]","% Inhibition of VEGF165-mediated 6-keto Prostaglandin F1α release at 133 nM Antibody Concentration, N = 1 (KDR [5]) [%]","% Inhibition of VEGF165-mediated 6-keto Prostaglandin F1α release at 133 nM Antibody Concentration, N = 2 (KDR [5]) [%]","Activity at 133 nM Antibody Concentration (% Survival Inhibition), Average (KDR [3]) [%]","Activity at 133 nM Antibody Concentration (% Survival Inhibition), N = 1 (KDR [3]) [%]","Activity at 133 nM Antibody Concentration (% Survival Inhibition), N = 2 (KDR [3]) [%]"
"27A3 (antibody, V domains shown) VH: QLQLQESGPGLVKPSETLSLTCTVSGGSISSRSDYWGWIRQPPGKGLEWIGTIYYSGDTYYNPSLKSRVTISVDTSKNQFSLKLSSVTAADTAVYYCARQQLVLYYFDYWGQGTLVTVSS VL: EIVLTQSPGTLSLSPGERATLSCRASQSVSSSYLAWYQQKPGQAPRLLIYATSNRATGIPDRFSGSGSGTDFTLTISRLEPEDFAVYYCQQHGSSPPLTFGGGTKVEIK",9,19,0,67,63,72,19,22,17,88,54,121,83,86,81
"21H9 (antibody, V domains shown) VH: QVPLVESGGGVVQPGRSLRLSCAASGFTFSSYGMHWVRQAPGKGLEWVAVIWYDGSNKYYADSVQGRFTISRDNSKNTLYLQMNSLRAEDTAVYYCARGVTMVRGLIIARYYYGLDVWGQGTTVTVSS VL: DIVMTQTPLSSPVTFGQPASISCRSSQSLVHSDGNTYLSWLQQRPGQPPRLLIYKISNRFFGVPDRFSGSGAGTDFTLKISRVEAEDVGLYYCMQSTQFPLTFGGGTKVEIK",-1,-3,2,26,21,31,15,16,13,33,5,61,-18,-20,-16
"22B8 (antibody, V domains shown) VH: QLQLQESGPGLVKPSETLSLTCTVSGGSISSRYYYWGWVRQPPGKGLEWIGTIYYSGHTYYNPSLKTRVTISVDTSKNQFSLKLISVTAADTAVYYCATQQLVLYYFDFWGQGTLVTVSS VL: EIVLTQSPGTLSLSPGERAALSCRASQSISSSYLAWYQQRPGQAPRLLIYGASSRATGIPDRFNGSGSGTDFTLTISRLEPEDFAVYYCQQFGSSITFGQGTRLEIK",99,82,115,76,75,76,7,9,5,72,67,76,88,88,87
"21H6 (antibody, V domains shown) VH: QVQLVESGGGLVKPGGSLRLSCAASGFTFSDYYMSWIRQAPGKGLEWVSYISNSGITIYYADSVKGRFTISRDNAKNSLYLQMNSLRAGDTAVYYCAREEWYSSRWYRNFDYWGQGTLVTVSS VL: DIQMTQFSSSLSASVGDRVTITCRASQSISRYLNWYQQKPGKAPKLLIYAASSLQSGVPSRFNGSGSGTDFTLTISSLQPEDFATYYCQQSYSAPLTFGGGTKVEIK",27,35,19,74,74,75,11,10,12,100,104,96,91,105,77

# Second part, led by results:
"Activity at 133 nM (% Inhibition), 24-hour Pre-incubation at 37° C., Average (KDR [1]) [%]","Activity at 133 nM (% Inhibition), 24-hour Pre-incubation at 37° C., N = 1 (KDR [1]) [%]","Activity at 133 nM (% Inhibition), 24-hour Pre-incubation at 37° C., N = 2 (KDR [1]) [%]","Activity at 133 nM (% Inhibition), 1-hour Pre-incubation at 4° C., Average (KDR [2]) [%]","Activity at 133 nM (% Inhibition), 1-hour Pre-incubation at 4° C., N = 1 (KDR [2]) [%]","Activity at 133 nM (% Inhibition), 1-hour Pre-incubation at 4° C., N = 2 (KDR [2]) [%]","% of Max VEGF KDR pTyr Activity (at 133 nM antibody concentration), Average (KDR [4]) [%]","% of Max VEGF KDR pTyr Activity (at 133 nM antibody concentration), N = 1 (KDR [4]) [%]","% of Max VEGF KDR pTyr Activity (at 133 nM antibody concentration), N = 2 (KDR [4]) [%]","% Inhibition of VEGF165-mediated 6-keto Prostaglandin F1α release at 133 nM Antibody Concentration, Average (KDR [5]) [%]","% Inhibition of VEGF165-mediated 6-keto Prostaglandin F1α release at 133 nM Antibody Concentration, N = 1 (KDR [5]) [%]","% Inhibition of VEGF165-mediated 6-keto Prostaglandin F1α release at 133 nM Antibody Concentration, N = 2 (KDR [5]) [%]",Binder,"Activity at 133 nM Antibody Concentration (% Survival Inhibition), Average (KDR [3]) [%]","Activity at 133 nM Antibody Concentration (% Survival Inhibition), N = 1 (KDR [3]) [%]","Activity at 133 nM Antibody Concentration (% Survival Inhibition), N = 2 (KDR [3]) [%]"
8,19,-4,65,60,69,18,19,17,84,56,111,"27D10 (antibody, V domains shown) VH: QLQLQESGPGLVKPSETLSLTCTVSGGSISSRSDYWGWIRQPPGKGLEWIGTIYYSGSTFYNPSLKSRVTISVDTSKNQFSLKLSSVTAADTAVYYCARQQLVLYYFDYWGQGTLVTVSS VL: not shown",76,84,68
38,39,37,27,26,28,12,12,12,10,4,15,"30D7 (antibody, V domains shown) VH: QVPLVESGGGVVQPGRSLRLSCAASGFTFSSYGMHWVRQAPGKGLEWVAVIWYDGSNKYYADSVKGRFTISRDNSKNTLYLQMNSLRAEDTAVYYCARGVTMVRGVIIARYYYGLDVWGQGTTVTVSS VL: DIVMTQTPLSSPVTLGQPASISCRSSQSLVHSDGNTYLSWLQQRPGQPPRLLIYKISNRFFGVPDRFSGSGAGTDFTLKIGRVEAEDVGLYYCMQSTQFPLTFGGGTKVEIK",-51,-9,-92
49,38,61,29,25,33,11,12,10,6,3,9,"32B2 (antibody, V domains shown) VH: EVQLLESGGGLVQPGGSLRLSCAASGFTFSNYAMSWVRQAPGKGLDWVSAISGRGGSTYYADSVKGRFTISRDNSKNTLFLLMNSLRAEDTAVYYCAKASGDDWGQGTLVTVSS VL: not shown",-21,-13,-29
19,1,36,50,45,55,16,20,11,18,14,22,"29H3 (antibody, V domains shown) VH: QVQLVQSGAEVKKPGASVKVSCKASGYTFTSYDINWVRQATGQGLEWMGWMNPNSGKTGYAQKFQGRVTMTRNTSINTAYMELSSLRSEDTAVYYCARGGYSNLGWFDPWGQGTLVTVSS VL: DIQMTQSPSSVSASVGDRVTITCRASQGISSWLVWYHQKPGKAPKLLIYGASSLQSGVPSRFSGSGSGTDFTLTISSLQPEDFATYYCQQANNFPFTFGPGTKVDIK",-70,-5,-136
